Source: publication PMC12164976 (Science Advances, 2025)
Read-outs that look alike come from different tables or passages of the source. No end group written: not given here.

What was measured:
Test in all cases: fluorescence polarisation
[1] = molecular target: T1, chloroplast signal recognition particle 43-kDa protein (cpSRP43), wild type, full length (A. thaliana, UniProt O22265 57-373)
T1 sequence: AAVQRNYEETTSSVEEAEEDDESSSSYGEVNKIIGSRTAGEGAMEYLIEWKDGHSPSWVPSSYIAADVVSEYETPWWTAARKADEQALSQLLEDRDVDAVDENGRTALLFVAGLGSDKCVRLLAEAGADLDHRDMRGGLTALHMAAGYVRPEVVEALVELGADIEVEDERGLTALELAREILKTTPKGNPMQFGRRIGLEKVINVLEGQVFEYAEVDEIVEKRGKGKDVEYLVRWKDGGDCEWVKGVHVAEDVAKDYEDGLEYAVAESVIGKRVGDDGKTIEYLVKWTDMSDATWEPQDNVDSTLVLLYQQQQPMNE

[2] = molecular target: T1, chloroplast signal recognition particle …; remark: listed apart in the source
[3] = molecular target: T1, chloroplast signal recognition particle …; remark: listed apart in the source

GSFDPLGLADD (also: HiLyte Fluor 488 label, position not given here) [HiLyte Fluor 488-labeled L11 peptide]
Kd [1]: 710 nM
Kd [2]: 12 nM
Kd [3]: 28 nM

QKQKAPPGTARRKRKAC (also: fluorescein label, position not given here) [fluorescein-labeled 54C peptide]
Kd [1]: 5000 nM
Kd [2]: 36 nM
Kd [3]: 230 nM
